Assay results taken from patent publication US20140314744A1 (NEOTOPE BIOSCIENCES, published 2014).

Molecular target: T1, Recombinant human IgG1 Fc (R&D systems) (human, UniProt P01857-1 100-330 = IgG part)
T1 construct: domain: Fc; Negative control surface in the Biacore experiment; also called hIgG1-Fc
Assay: SPR (Biacore T200)

binding result: no binding (tested: 5-175 nM)
B1: Recombinant human laminin-α4 (R&D systems) (ligand, UniProt Q16363-2 826-1816, looked up)
chain: QVSMMFDGQSAVEVHSRTSMDDLKAFTSLSLYMKPPVKRPELTETADQFILYLGSKNAKKEYMGLAIKNDNLVYVYNLGTKDVEIPLDSKPVSSWPAYFSIVKIERVGKHGKVFLTVPSLSSTAEEKFIKKGEFSGDDSLLDLDPEDTVFYVGGVPSNFKLPTSLNLPGFVGCLELATLNNDVISLYNFKHIYNMDPSTSVPCARDKLAFTQSRAASYFFDGSGYAVVRDITRRGKFGQVTRFDIEVRTPADNGLILLMVNGSMFFRLEMRNGYLHVFYDFGFSGGPVHLEDTLKKAQINDAKYHEISIIYHNDKKMILVVDRRHVKSMDNEKMKIPFTDIYIGGAPPEILQSRALRAHLPLDINFRGCMKGFQFQKKDFNLLEQTETLGVGYGCPEDSLISRRAYFNGQSFIASIQKISFFDGFEGGFNFRTLQPNGLLFYYASGSDVFSISLDNGTVIMDVKGIKVQSVDKQYNDGLSHFVISSVSPTRYELIVDKSRVGSKNPTKGKIEQTQASEKKFYFGGSPISAQYANFTGCISNAYFTRVDRDVEVEDFQRYTEKVHTSLYECPIESSPLFLLHKKGKNLSKPKASQNKKGGKSKDAPSWDPVALKLPERNTPRNSHCHLSNSPRAIEHAYQYGGTANSRQEFEHLKGDFGAKSQFSIRLRTRSSHGMIFYVSDQEENDFMTLFLAHGRLVYMFNVGHKKLKIRSQEKYNDGLWHDVIFIRERSSGRLVIDGLRVLEESLPPTEATWKIKGPIYLGGVAPGKAVKNVQINSIYSFSGCLSNLQLNGASITSASQTFSVTPCFEGPMETGTYFSTEGGYVVLDESFNIGLKFEIAFEVRPRSSSGTLVHGHSVNGEYLNVHMKNGQVIVKVNNGIRDFSTSVTPKQSLCDGRWHRITVIRDSNVVQLDVDSEVNHVVGPLNPKPIDHREPVFVGGVPESLLTPRLAPSKPFTGCIRHFVIDGHPVSFSKAALVSGAVSINSCPAA
notes: also called laminin 4A chain; laminin A4 (α4) chain
